Like-named read-outs stand apart in the source and are kept apart here.
Legend:
[1] = molecular target: T1, Clostridium perfringens NetB toxin (necrotic enteritis B-like toxin) (Clostridium perfringens); assay: cell-based or functional assay
[2] = molecular target: T1, Clostridium perfringens NetB toxin …; assay: SPR (Biacore 8K+), single cycle kinetics, NetB toxin immobilised, pH 7.4
[3] = molecular target: T1, Clostridium perfringens NetB toxin …; assay: cell-based or functional assay; remark: listed apart in the source
[4] = molecular target: T1, Clostridium perfringens NetB toxin …
[5] = molecular target: T1, Clostridium perfringens NetB toxin …; remark: listed apart in the source

Binder	IC50 of NetB-induced RBC lysis inhibition after incubation in water, Day 0 [1]	IC50 of NetB-induced RBC lysis inhibition after incubation in water, Day 1 [1]	IC50 of NetB-induced RBC lysis inhibition after incubation in water, Day 4 [1]	Kd [2]	koff [2]	kon [2]	IC50, inhibition of NetB-induced RBC lysis, 0 min incubation with 30 U/ml pepsin [3]	EC50 (read off the curve) [4]	EC50 (read off the curve) [5]
Net_14 (VHH) VHH: QVQLVESGGGLVQAGGSVRLSCVASGLTFSGYSLGWFRQAPGKEREGVSYISSSGMITDYADSVKGRVTISRDDAKSTMYLQMNSLKPEDTAVYYCAARFPRPRSWLSTDSYNYWGQGAQVTVSS	44.2 nM	53 nM	51.1 nM	0.095 nM	6.32e-05 s⁻¹	668000 M⁻¹ s⁻¹	23 nM	~0.02 µg/mL	
Net_83 (VHH) VHH: QVQLVESGGGLVQAGESLRLSCAASGSIRSISFMNWYRQQPGKQRELVAGINQIGNTNYAGSVKGRFTISRDNAKNTVYLQMNSLKPEDTAVYYCNVIVRGTVSPFQFWGQGTQVTVSS	163 nM	168 nM	245 nM	0.213 nM	0.000248 s⁻¹	1.17e+06 M⁻¹ s⁻¹	61 nM		~0.03 µg/mL

Reference: patent US20250197484A1 (ECO ANIMAL HEALTH, published 2025)
